Data: IntAct's records for PubMed 22178926

B1: Integrin beta-3 (Homo sapiens), P05106 (parent)
chain: MRARPRPRPLWATVLALGALAGVGVGGPNICTTRGVSSCQQCLAVSPMCAWCSDEALPLGSPRCDLKENLLKDNCAPESIEFPVSEARVLEDRPLSDKGSGDSSQVTQVSPQRIALRLRPDDSKNFSIQVRQVEDYPVDIYYLMDLSYSMKDDLWSIQNLGTKLATQMRKLTSNLRIGFGAFVDKPVSPYMYISPPEALENPCYDMKTTCLPMFGYKHVLTLTDQVTRFNEEVKKQSVSRNRDAPEGGFDAIMQATVCDEKIGWRNDASHLLVFTTDAKTHIALDGRLAGIVQPNDGQCHVGSDNHYSASTTMDYPSLGLMTEKLSQKNINLIFAVTENVVNLYQNYSELIPGTTVGVLSMDSSNVLQLIVDAYGKIRSKVELEVRDLPEELSLSFNATCLNNEVIPGLKSCMGLKIGDTVSFSIEAKVRGCPQEKEKSFTIKPVGFKDSLIVQVTFDCDCACQAQAEPNSHRCNNGNGTFECGVCRCGPGWLGSQCECSEEDYRPSQQDECSPREGQPVCSQRGECLCGQCVCHSSDFGKITGKYCECDDFSCVRYKGEMCSGHGQCSCGDCLCDSDWTGYYCNCTTRTDTCMSSNGLLCSGRGKCECGSCVCIQPGSYGDTCEKCPTCPDACTFKKECVECKKFDRGALHDENTCNRYCRDEIESVKELKDTGKDAVNCTYKNEDDCVVRFQYYEDSSGKSILYVVEEPECPKGPDILVVLLSVMGAILLIGLAALLIWKLLITIHDRKEFAKFEEERARAKWDTANNPLYKEATSTFTNITYRGT

Variants of: B1
Details: with ITGA2B

Effect of a mutation on the interaction, disrupting interaction strength:
K742C
K742A
K742E
K742L
K742S
